Source: US20090221680, “Aptamers that bind thrombin with high affinity” (published 2009)
Where a chain is given by its changes, count along the chain named.

B1: AMX(395)_E8 (ssDNA)
DNA: TCCCATGATCGTCAGATTCAGGGATGGTGTGGGTGGCTGAGGATCGATC
B2: AMX(395)_G2 (ssDNA)
DNA: TCCCACGGTCCTCACCTAGGATGGTTAGGGTGGTGGCTGAGGATCGATC
B3: AMX(395)_H9 (ssDNA)
DNA: TCCCGGTAGCGATCCAGAGAGGGATGGGGTGGGTGGCTGAGGATCGATC
B4: AMX(395)_A11 (ssDNA)
DNA: TCCCGTAATCGAGCCTGGTATTGTTGGCCTGGGTGGCTGAGGATCGATC
B5: AMX(395)_B5 (ssDNA)
DNA: TCCCGCAATCGGTACTCAGGAGGATGGTTGGGGTGGCTGAGGATCGATC
B6: AMX(395)_E11 (ssDNA)
DNA: TCCCGGTCGTATTAGTGTGGGTGGTGTAGGGTGGTGGCTGAGGATCGATC
B7: AMX(395)_G11 (ssDNA)
DNA: TCCCAGAGCGGAAATCCTCAGGGGTGGGGTGGGTGGCTGAGGATCGATC
B8: AMX(395)_E4 (ssDNA)
DNA: TCCCGACTTCGATTACTCAGGGGTGGCTGTGGGTGGCTGAGGATCGATC
B9: AMX(395)_E2 (ssDNA)
DNA: TCCTATCGATACGGGGTCTTCTATTGGGTCGGGGTGGCTGAGGATCGATC
B10: AMX(395)_D5 (ssDNA)
DNA: TCCCGAGTGTCATATCATCAGAGGTTGGAGTGGGTGGCTGAGGATCGATC
B11: AMX(395)_F3 (ssDNA)
DNA: TCCCATAGTATCGAGCCGATTGGATGGTCTGGGTGGCTGAGGATCGATC
B12: AMX(395)_E7 (ssDNA)
DNA: TCCCGGTCGAGTCCTCACGAAGGGTTGGGAGGGTGGCTGAGGATCGATC
B13: ARC2179 (ssDNA)
DNA: TAACTGCCTAGGTTGGGTAGGGTGGTGGCAGTTA
B14: ARC2181 (ssDNA)
DNA: ACTAACTGCCTAGGTTGGGTAGGGTGGTGGCAGTTAGT
B15: ARC2184 (ssDNA)
DNA: ACTGCCTAGGTTGGTGTGGTTGGTGGCAGT
B16: ARC2174 (ssDNA)
DNA: TACCTCAGGGATGGTGTGGGTGGCTGAGGTA
B17: ARC2180 (ssDNA)
DNA: CTAACTGCCTAGGTTGGGTAGGGTGGTGGCAGTTAG
B18: ARC2177 (ssDNA)
DNA: GACTACCTCAGGGATGGTGTGGGTGGCTGAGGTAGTC
B19: ARC2182 (ssDNA)
DNA: GACTAACTGCCTAGGTTGGGTAGGGTGGTGGCAGTTAGTC
B20: ARC2178 (ssDNA)
DNA: AACTGCCTAGGTTGGGTAGGGTGGTGGCAGTT
B21: ARC2183 (ssDNA)
DNA: CCTCAGGGTTGGTGTGGTTGGCTGAGG
B22: ARC2186 (ssDNA)
DNA: CCTCAGGGATGGTGTGGGTGGCTGAGGTTTTTT
B23: ARC2176 (ssDNA)
DNA: ACTACCTCAGGGATGGTGTGGGTGGCTGAGGTAGT
B24: ARC2175 (ssDNA)
DNA: CTACCTCAGGGATGGTGTGGGTGGCTGAGGTAG
B25: ARC2185 (ssDNA)
DNA: CCTCAGGGATGGTGTGGGTGGCTGAGGTTT
B26: ARC2173 (ssDNA)
DNA: ACCTCAGGGATGGTGTGGGTGGCTGAGGT
B27: AMX(454)_F9 (ssDNA)
DNA: TCCCTGCATCGAGCCTCTATGGGATGGTTTGGGTGGCTGAGGATCGATC
B28: AMX(453)_G5 (ssDNA)
DNA: B1 DNA with C13T
B29: AMX(453)_C10 (ssDNA)
DNA: TCCTGATTGATCTGAGGGGTATTGTTGGCGTGGGTGGCTGAGGATCGATC
B30: AMX(454)_D11 (ssDNA)
DNA: TCCCTGCTTGTCGATATTTTAGGGTTGGTGTGGGTGGCTGAGGATCGATC
B31: AMX(454)_B9 (ssDNA)
DNA: CCCGACTGATTCTTACCTTAGGGATGGTGTGGGTGGCTGAGGATCGATC
B32: AMX(453)_F7 (ssDNA)
DNA: TCCCGAGCGATACTGTCTAGGTTGGGTAGGGTGGTGGCTGAGGATCGATC
B33: AMX(453)_F11 (ssDNA)
DNA: B32 DNA with C13T
B34: AMX(453)_B10 (ssDNA)
DNA: TCCCATCGATCTGGGGTAGTTTTATTGGGTCGGGTGGCTGAGGATCGATC
B35: AMX(454)_H3 (ssDNA)
DNA: B34 DNA with C31T
B36: AMX(453)_A9 (ssDNA)
DNA: ATCCCAATGTTGAGACGAGTAGGTGTGGGTAGGGTGGCTGAGGATCGATC
B37: AMX(454)_B12 (ssDNA)
DNA: TCCCTGGTTTCGATCTGTTTTGGTTGGTCTGGGTGGCTGAGGATCGATC
B38: ARC2193 (ssDNA)
DNA: TTTCTGCCTAGGTTGGGTAGGGTGGTGGCAG
B39: ARC2192 (ssDNA)
DNA: CTGCCTAGGTTGGGTAGGGTGGTGGCAGTTTTTT
B40: ARC2191 (ssDNA)
DNA: CTGCCTAGGTTGGGTAGGGTGGTGGCAGTTT
B41: ARC2195 (ssDNA)
DNA: B13 DNA with A2T, A3T, A34T
B42: ARC2194 (ssDNA)
DNA: TTTTTTCTGCCTAGGTTGGGTAGGGTGGTGGCAG
B43: ARC2189 (ssDNA)
DNA: B24 DNA with C1T, A3T, A32T, G33T
B44: ARC2196 (ssDNA)
DNA: TTTTTTCTGCCTAGGTTGGGTAGGGTGGTGGCAGTTTTTT
B45: ARC2190 (ssDNA)
DNA: TTTTTTCCTCAGGGATGGTGTGGGTGGCTGAGGTTTTTT
B46: ARC2188 (ssDNA)
DNA: TTTTTTCCTCAGGGATGGTGTGGGTGGCTGAGG
B47: ARC2169.1 (ssDNA)
DNA: ACTGCCTAGGATGGGTAGGGTGGTGGCAGT
B48: ARC2169.2 (ssDNA)
DNA: B47 DNA with A11G
B49: ARC2169.6 (ssDNA)
DNA: B47 DNA with C6A, A11T, G25T
B50: ARC2169.4 (ssDNA)
DNA: B47 DNA with A11T, G20A
B51: ARC2169.7 (ssDNA)
DNA: B47 DNA with C6A, A11T
B52: ARC2169.8 (ssDNA)
DNA: ACTGCATAGGTTGGGTAGGGTGGTGCAGT

molecular target: thrombin (alpha-thrombin) (Homo sapiens, UniProt P00734;P00734 P00734:315-363,P00734:364-622); assay: filter; 10 nM thrombin

Point of comparison: B6, binding signal 33.7 % bound. Against it:
- B1 — lower, 21.3 % bound
- B2 — lower, 33.1 % bound
- B3 — lower, 9.61 % bound
- B4 — higher, 35.8 % bound
- B5 — lower, 17.1 % bound
- B7 — lower, 21.9 % bound
- B8 — lower, 24 % bound
- B9 — lower, 6.51 % bound
- B10 — lower, 13.4 % bound
- B11 — lower, 6.29 % bound
- B12 — lower, 9.12 % bound

molecular target: T1, thrombin (endogenous, clotting assay in plasma or whole blood) (Homo sapiens, UniProt P00734;P00734 P00734:328-363,P00734:364-622); assay: inhibition; ACT at 10 uM

Point of comparison: B20, activity 429 s. Against it:
- B13 — higher, 462 s
- B14 — higher, 478 s
- B15 — lower, 368 s
- B16 — lower, 416 s
- B17 — higher, 516 s
- B18 — lower, 401 s
- B19 — higher, 518 s
- B21 — lower, 354 s
- B22 — lower, 408 s
- B23 — lower, 394 s
- B24 — lower, 392 s
- B25 — lower, 384 s
- B26 — lower, 415 s

molecular target: T1, thrombin (endogenous, clotting assay in …); assay: inhibition; PT at 10 uM

Point of comparison: B34, activity 24.8 s. Against it:
- B27 — higher, 25 s
- B28 — higher, 29.3 s
- B29 — higher, 104 s
- B30 — higher, 43.4 s
- B31 — higher, 32 s
- B32 — higher, 28.6 s
- B33 — higher, 65.8 s
- B35 — higher, 35.4 s
- B36 — higher, 29.3 s
- B37 — lower, 21.9 s

molecular target: T1, thrombin (endogenous, clotting assay in …); assay: inhibition; ACT at 10 uM aptamer

Point of comparison: B38, activity 545 s. Against it:
- B39 — lower, 423 s
- B40 — lower, 453 s
- B41 — lower, 438 s
- B42 — lower, 462 s
- B43 — lower, 410 s
- B44 — lower, 441 s
- B45 — lower, 389 s
- B46 — lower, 426 s

molecular target: T1, thrombin (endogenous, clotting assay in …); assay: inhibition; PT at 10 uM; remark: another data set of the same source

Point of comparison: B49, activity 300 s. Against it:
- B47 — the same, 300 s
- B48 — the same, 300 s
- B50 — lower, 53.8 s
- B51 — the same, 300 s
- B52 — lower, 28.7 s
